According to patent US20260167698A1 (ONO PHARMACEUTICAL, published 2026):
Substitutions are numbered along the chain they refer to.

T1: human Allergin-1L (expressed on CHO cells) (human, UniProt Q7Z6M3 20-343)
T1 construct: also called MILR1; human Allergin-1L-expressing CHO cell lines
T1 sequence: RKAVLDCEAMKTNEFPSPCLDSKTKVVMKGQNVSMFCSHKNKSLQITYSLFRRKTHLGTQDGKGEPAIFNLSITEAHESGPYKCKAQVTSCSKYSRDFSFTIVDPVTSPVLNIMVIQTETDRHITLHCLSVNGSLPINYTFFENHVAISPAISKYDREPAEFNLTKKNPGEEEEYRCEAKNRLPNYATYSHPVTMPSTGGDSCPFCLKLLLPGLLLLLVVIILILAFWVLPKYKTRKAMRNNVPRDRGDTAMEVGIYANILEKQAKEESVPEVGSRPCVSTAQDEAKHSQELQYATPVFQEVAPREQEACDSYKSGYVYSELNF

B1: anti-Allergin-1 bispecific antibody #15_h_optv2 clone (bispecific antibody, human IgG1, kappa, L234A L235A, N297A)
heavy: EVQLVESGGGLVQPGGSLRLSCAASGFSLSSHAMSWVRQAPGKGLEWIGTISTIDTTYYASWAKGRFTISRDNSKNTVYLQMNSLRAEDTAVYYCARLSELYTTNSYYSRWGQGTLVTVSSASTKGPSVFPLAPSSKSTSGGTAALGCLVKDYFPEPVTVSWNSGALTSGVHTFPAVLQSSGLYSLSSVVTVPSSSLGTQTYICNVNHKPSNTKVDKRVEPKSCDKTHTCPPCPAPEAAGGPSVFLFPPKPKDTLMISRTPEVTCVVVDVSHEDPEVKFNWYVDGVEVHNAKTKPREEQYASTYRVVSVLTVLHQDWLNGKEYKCKVSNKALPAPIEKTISKAKGQPREPQVYTLPPSREEMTKNQVSLTCLVKGFYPSDIAVEWESNGQPENNYKTTPPVLDSDGSFFLYSKLTVDKSRWQQGNVFSCSVMHEALHNHYTQKSLSLSPGGGGGSGGGGSAIQMTQSPSSLSARVGDRVTITCQSSESVYDNNYLSWYQQKPGKAPKLLIYDASRLASGVPSRFSGSGSGTQFTLTISSLQPEDFATYYCLGGYDSSGWYAAFGTGTKVTVLGGGGGSGGGGSGGGGSGGGGSEVQLVESGGGLVQPGGSLRLSCAASGFSLTIYTITWVRQAPGKGLEWIGTINSYGNTYYSTWAKGRFTISRDNSKNTVYLQMNSLRAEDTAVYYCARGYVDSDWYLNIWGQGTLVTVSS
light: DIQMTQSPSSLSASVGDRVTITCQASESIGSLLAWYQQKPGKAPKLLIYRASTLESGVPSRFSGSGSGTDFTLTISSLQPEDFATYYCQSYHYSSSSSYAAFGQGTKVEIKRTVAAPSVFIFPPSDEQLKSGTASVVCLLNNFYPREAKVQWKVDNALQSGNSQESVTEQDSKDSTYSLSSTLTLSKADYEKHKVYACEVTHQGLSSPVTKSFNRGEC
notes: Morrison form: Fab Pro1571, scFv Pro2281
B2: anti-Allergin-1 bispecific antibody #15_h clone (bispecific antibody, human IgG1, kappa, L234A L235A, N297A)
heavy: B1 heavy with A461D, R474S, Q532D
light: B1 light
notes: Morrison form antibody: Fab from Pro1571 (S2-D), scFv from Pro1588 (S1-A) on the heavy chain C-terminus
B3: anti-Allergin-1 bispecific antibody #15_h_opt clone (bispecific antibody, human IgG1, kappa, L234A L235A, N297A)
heavy: B1 heavy with T565C, G637C
light: B1 light
notes: Morrison form: Fab Pro1571, scFv Pro2282
B4: anti-Allergin-1 bispecific antibody #15p_h_opt clone (bispecific antibody, human IgG1, kappa, L234A L235A, N297A)
heavy: EVQLVESGGGLVQPGGSLRLSCAASGFSLTIYTITWVRQAPGKGLEWIGTINSYGNTYYSTWAKGRFTISRDNSKNTVYLQMNSLRAEDTAVYYCARGYVDSDWYLNIWGQGTLVTVSSASTKGPSVFPLAPSSKSTSGGTAALGCLVKDYFPEPVTVSWNSGALTSGVHTFPAVLQSSGLYSLSSVVTVPSSSLGTQTYICNVNHKPSNTKVDKRVEPKSCDKTHTCPPCPAPEAAGGPSVFLFPPKPKDTLMISRTPEVTCVVVDVSHEDPEVKFNWYVDGVEVHNAKTKPREEQYASTYRVVSVLTVLHQDWLNGKEYKCKVSNKALPAPIEKTISKAKGQPREPQVYTLPPSREEMTKNQVSLTCLVKGFYPSDIAVEWESNGQPENNYKTTPPVLDSDGSFFLYSKLTVDKSRWQQGNVFSCSVMHEALHNHYTQKSLSLSPGGGGGSGGGGSDIQMTQSPSSLSASVGDRVTITCQASESIGSLLAWYQQKPGKAPKLLIYRASTLESGVPSRFSGSGSGTDFTLTISSLQPEDFATYYCQSYHYSSSSSYAAFGCGTKVTVLGGGGGSGGGGSGGGGSGGGGSEVQLVESGGGLVQPGGSLRLSCAASGFSLSSHAMSWVRQAPGKCLEWIGTISTIDTTYYASWAKGRFTISRDNSKNTVYLQMNSLRAEDTAVYYCARLSELYTTNSYYSRWGQGTLVTVSS
light: AIQMTQSPSSLSARVGDRVTITCQSSESVYDNNYLSWYQQKPGKAPKLLIYDASRLASGVPSRFSGSGSGTQFTLTISSLQPEDFATYYCLGGYDSSGWYAAFGQGTKVEIKRTVAAPSVFIFPPSDEQLKSGTASVVCLLNNFYPREAKVQWKVDNALQSGNSQESVTEQDSKDSTYSLSSTLTLSKADYEKHKVYACEVTHQGLSSPVTKSFNRGEC
notes: Morrison form: Fab Pro2281, scFv Pro2285
B5: humanized scFv Pro1565 (scFv, V domains shown)
VH: EVQLVESGGGLVQPGGSLRLSCAASGFSLSSHAMAWVRQAPGKGLEWIGYIWSGGITEYPSWAKGRFTISRDNSKNTVYLQMNSLRAEDTAVYYCARDVHIYGDIYAFDLWGQGTLVTVSS
VL: DIQMTQSPSSLSASVGDRVTITCQASQDIESYLNWYQQKPGKAPKLLIYYASTLASGVPSRFSGSGSGTDFTLTISSLQPEDFATYYCQQSYSNSDVDKNVFGTGTKVTVLG
notes: A single-chain Fv
B6: humanized scFv Pro1707 (scFv, V domains shown)
VH: ESQLVESGGGLVQPGGSLRLSCAVSGIDLSSYAVGWVRQAPGKGLEWIGIIGRSGSIYYASWAKGRFTISKDNSKNTVYLQMNSLRAEDTAVYYCARDVDSRPPTGSLWGQGTLVTVSS
VL: DVQMTQSPSSLSASVGDRVTITCQASQNTYSNLDWYQQKPGKAPKLLIYQASKLASGVPSRFSGSGSGTDFTLTISSLQPEDFATYYCQSTSWGSSYVGGFGTGTKVTVLG
notes: A single-chain Fv
B7: humanized scFv Pro1751 (scFv, V domains shown)
VH: EVQLVESGGGLVQPGGSLRLSCAASGIDFSSYYDMCWVRQAPGKCLEWIGCIYTGSVGELYYASWAKGRFTISRDNSKNTVYLQMNSLRAEDTAVYYCARRGSGVDDYYFNLWGQGTLVTVSS
VL: DIQMTQSPSSLSASVGDRVTITCQSSQSVDNNNWLAWYQQKPGKAPKLLIYDASTLASGVPSRFSGSGSGTDFTLTISSLQPEDFATYYCQGTYYTTDWWNSFGCGTKVTVLG
notes: A single-chain Fv
B8: humanized scFv Pro1571 (scFv, V domains shown)
VH: EVQLVESGGGLVQPGGSLRLSCAASGFSLSSHAMSWVRQAPGKGLEWIGTISTIDTTYYASWAKGRFTISRDNSKNTVYLQMNSLRAEDTAVYYCARLSELYTTNSYYSRWGQGTLVTVSS
VL: DIQMTQSPSSLSASVGDRVTITCQASESIGSLLAWYQQKPGKAPKLLIYRASTLESGVPSRFSGSGSGTDFTLTISSLQPEDFATYYCQSYHYSSSSSYAAFGTGTKVTVLG
notes: A single-chain Fv
B9: humanized scFv Pro1742 (scFv, V domains shown)
VH: EVQLVESGGGLVQPGGSLRLSCAASGFSLNNYFMIWVRQAPGKCLEWIGIITSYHTTYFANWAKGRFTISRDNSKNTVYLQMNSLRAEDTAVYYCAPYDIYGYPTLWGQGTLVTVSS
VL: DIQMTQSPSSLSASVGDRVTITCQASQSIGAYLSWYQQKPGKAPKLLIYEASTLASGVPSRFSGSGSGTDFTLTISSLQPEDFATYYCLGAYGRSSDDGTAFGCGTKVTVLG
notes: A single-chain Fv
B10: humanized scFv Pro1586 (scFv, V domains shown)
VH: EVQLVESGGGLVQPGGSLRLSCAASGIDLSYYAMNWVRQAPGKGLEWIGMIVGGGITFYANWAKGRFTISRDNSKNTVYLQMNSLRAEDTAVYYCAVGSDGGISDFNIWGQGTLVTVSS
VL: DIQMTQSPSSLSASVGDRVTITCQASQSISSYLAWYQQKPGKAPKLLIYRASTLASGVPSRFSGSGSGTDFTLTISSLQPEDFATYYCQQAYSLSNVDNFFGTGTKVTVLG
notes: A single-chain Fv
B11: humanized scFv Pro1570 (scFv, V domains shown)
VH: EVQLVESGGGLVQPGGSLRLSCAASGFSLSSYAMIWVRQAPGKGLEWIGFIDTDGHTEYANWAKGRFTISRDNSKNTVYLQMNSLRAEDTAVYYCARDGDHDYWGFNLWGQGTLVTVSS
VL: DIQMTQSPSSLSASVGDRVTITCQASQNIYRNLVWYQQKPGKAPKLLIYGASELESGVPSRFSGSGSGTDFTLTISSLQPEDFATYYCLSTYYISSSDNSFGTGTKVTVLG
notes: A single-chain Fv
B12: humanized scFv Pro1588 (scFv, V domains shown)
VH: EVQLVESGGGLVQPGGSLRLSCAASGFSLTIYTITWVRQAPGKGLEWIGTINSYGNTYYSTWAKGRFTISRDNSKNTVYLQMNSLRAEDTAVYYCARGYVDSDWYLNIWGQGTLVTVSS
VL: DIQMTQSPSSLSASVGDRVTITCQSSESVYDNNYLSWYQQKPGKAPKLLIYDASRLASGVPSRFSGSGSGTDFTLTISSLQPEDFATYYCLGGYDSSGWYAAFGTGTKVTVLG
notes: A single-chain Fv

Target: T1, human Allergin-1L (expressed on CHO …)
Assay: flow cytometry, binding to Allergin-1L

Binder | EC50 [nM]
B1 | 2.41
B2 | 2.37
B3 | 2.58
B4 | 1.49

Target: T1, human Allergin-1L (expressed on CHO …)
Assay: selected on binding by CELISA and SPR (Example 5)
Method: The purified humanized scFv was analyzed for binding to CHO cells stably expressing human Allergin-1L and monkey Allergin-1, by CELISA, respectively. In detail, the CHO cells were seeded in 96-well plates, to which diluted humanized scFv was added, and which were incubated at 37° C. After washing the CHO cells, to which diluted HRP-labeled Protein L was added, and which were incubated again at 37° C. After washing the CHO cells again, to which HRP chromogenic substrate was added, and which were incubated at room temperature, and then in which absorbance was measured. As a result, the bindings to human Allergin-1L and monkey Allergin-1 were confirmed in several clones.
Furthermore, for each humanized scFv, the binding to Fc-fused human Allergin-1L recombinant protein was analyzed by SPR method. In detail, Fc-fused human Allergin-1L recombinant protein was immobilized on a sensor chip, followed by flowing humanized scFv as an analyte into a flow cell. As a result, the bindings to human Allergin-1L were confirmed in several clones.

Binder | binding result
B5 | binds
B6 | binds
B7 | binds
B8 | binds
B9 | binds
B10 | binds
B11 | binds
B12 | binds
